Assay results as given in patent US20240117038A1 (Ablynx, published 2024).

T1: human CX3CR1 (human, UniProt P49238 1-355)
T1 construct: Overexpressed on CHO K1, Ba/F3 or HEK293T cells; also called huCX3CR1; hCX3CR1
T1 sequence: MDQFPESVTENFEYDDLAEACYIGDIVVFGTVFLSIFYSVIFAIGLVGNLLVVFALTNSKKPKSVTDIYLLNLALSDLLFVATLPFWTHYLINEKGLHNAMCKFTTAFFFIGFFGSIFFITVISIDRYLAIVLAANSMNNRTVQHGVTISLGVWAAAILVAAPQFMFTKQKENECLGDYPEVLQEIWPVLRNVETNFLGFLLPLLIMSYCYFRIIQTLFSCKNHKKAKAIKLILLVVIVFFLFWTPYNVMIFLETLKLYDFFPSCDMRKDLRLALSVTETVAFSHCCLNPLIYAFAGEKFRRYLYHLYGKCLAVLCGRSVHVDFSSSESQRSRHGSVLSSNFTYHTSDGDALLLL

T2: human CX3CR1 T280M (human, UniProt P49238 1-355)
T2 construct: Transiently transfected in HEK293T cells (pcDNA3.1); also called huCX3CR1 variant T280M (Rs3732378)
T2 sequence: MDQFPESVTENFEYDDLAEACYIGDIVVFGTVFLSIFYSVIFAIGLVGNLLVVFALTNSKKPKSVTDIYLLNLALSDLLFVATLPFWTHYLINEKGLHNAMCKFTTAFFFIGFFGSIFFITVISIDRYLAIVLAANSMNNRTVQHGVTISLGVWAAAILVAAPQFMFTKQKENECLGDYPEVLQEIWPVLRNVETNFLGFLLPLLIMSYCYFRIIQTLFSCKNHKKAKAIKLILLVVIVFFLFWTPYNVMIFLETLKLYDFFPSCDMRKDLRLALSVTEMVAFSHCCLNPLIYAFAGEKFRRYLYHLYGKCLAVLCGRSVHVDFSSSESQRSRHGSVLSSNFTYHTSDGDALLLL

T3: human CX3CR1 V249I/T280M (human, UniProt P49238 1-355)
T3 construct: Transiently transfected in HEK293T cells (pcDNA3.1); also called huCX3CR1 variant V249I and T280M
T3 chain: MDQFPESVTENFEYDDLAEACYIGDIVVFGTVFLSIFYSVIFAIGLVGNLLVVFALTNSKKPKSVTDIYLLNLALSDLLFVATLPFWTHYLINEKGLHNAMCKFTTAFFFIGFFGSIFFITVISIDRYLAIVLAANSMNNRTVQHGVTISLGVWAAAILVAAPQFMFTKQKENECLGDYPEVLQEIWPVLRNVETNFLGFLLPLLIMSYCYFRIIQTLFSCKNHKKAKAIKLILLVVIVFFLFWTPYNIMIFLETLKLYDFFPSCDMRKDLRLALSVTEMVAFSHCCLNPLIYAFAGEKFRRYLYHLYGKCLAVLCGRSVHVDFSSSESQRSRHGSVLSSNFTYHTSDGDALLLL


Tests used:
human CX3CR1 = target: T1, human CX3CR1; assay: competition flow cytometry vs soluble huCX3CL1-AF647 on CHO K1 huCX3CR1 cells, 30 uM HSA
human CX3CR1 T280M = target: T2, human CX3CR1 T280M; assay: flow cytometry on transiently transfected HEK293T cells, human CX3CR1 T280M
Method: (§1) After washing, serial dilutions of multivalent ISVD construct (starting from 250 nM, 3-fold dilution, 11 points, diluted in assay buffer), were added and incubated for 4 hours at 4° C. Binding was performed in the presence of 30 uM HSA (Sigma-Aldrich, Cat. No. A8763). Plates were then washed 3 times and cells were incubated with an anti-VHH mouse antibody (3300-fold diluted in assay buffer) for 30 minutes at 4′° C. […] Plates were finally washed 3 times and cells were resuspended in PI (Miltenyi Biotec, Cat. No. 130-093-233, 1000-fold diluted in assay buffer). Cell suspensions were analyzed with iQue Screener PLUS (Intellicyt). EC50s were estimated by dose response modelling. Curves were fit using 4 parameter logistic regression in GraphPad (GraphPad Software Inc.). A purified anti-human CX3CR1 antibody [K0124E1] (BioLegend, Cat. No. 355701/355702) was used as positive control to detect CX3CR1 expression on the cell surface.
(§2) Two important SNPs are described in huCX3CR1, i.e. V2491 (Rs3732379) and T280M (Rs3732378), which might influence receptor activity and binding by the ISVD. […] Different combinations of these SNPs were introduced in human CX3CR1, and binding by 5 selected multivalent ISVD constructs was assessed with flow cytometry after transient transfection of the huCX3CR1 variants in HEK293T cells.
In short, the CX3CR1 constructs were cloned into pcDNA3.1 (ThermoFisher Scientific, Cat. No. V79020) and plasmid DNA was prepared from Escherichia coli TOP10 cells. HEK293T cells were seeded at a concentration of 1.5E06 cells per T75 flask and incubated overnight at 37° C. in DMEM medium (Gibco, Cat. No. 31966) supplemented with 10% FBS (Sigma. Cat. No. F7524). The medium was then replaced by Opti-MEM medium (Gibco, Cat. No. 31985). A mixture of 9 μg plasmid DNA, 27 μL Fugene 6 (Promega, Cat. No. E2691) in a final volume of 1 mL Opti-MEM was incubated for 15 minutes at room temperature and then added to the cells. After 3 hours incubation at 37° C., 10 mL of DMEM supplemented with 20% FBS was added, and incubation continued.

human CX3CR1 V249I/T280M = target: T3, human CX3CR1 V249I/T280M; assay: flow cytometry on HEK293T cells transiently transfected with human CX3CR1 V249I + T280M; detection with anti-VHH mouse antibody and goat anti-mouse Fc APC, as in Example 5.1
Method: as §1, with “Plates” for “After washing, serial dilutions of multivalent ISVD construct (starting from 250 nM, 3-fold dilution, 11 points, diluted in assay buffer), were added and incubated for 4 hours at 4° C. Binding was performed in the presence of 30 uM HSA (Sigma-Aldrich, Cat. No. A8763). Plates”
as §2
In short, the CX3CR1 constructs were cloned into pcDNA3.1 (ThermoFisher Scientific, Cat. No. V79020) and plasmid DNA was prepared from Escherichia coli TOP10 cells. […]

| Binder | % inhibition (human CX3CR1) | IC50 (human CX3CR1) | EC50 (human CX3CR1 T280M) | binding result (human CX3CR1 V249I/T280M) |
| --- | --- | --- | --- | --- |
| A041600035 (VHH, Trivalent ISVD construct (two anti-CX3CR1 ISVDs, one anti-albumin ISVD), C-terminal alanine included in the entry; also called 54A12_SO (E1D)-9GS-54A12_SO-9GS-ALB23002-A) DVQLVESGGGSVQPGGSLRLSCAASGSIFSSTAMAWYRQAPGKQRDLVAVISTVGITKYADSVKGRFTISRDNAKNTVYLQMNSLRPEDTALYYCTSDARRGWDTRYWGQGTLVTVSSGGGGSGGGSEVQLVESGGGSVQPGGSLRLSCAASGSIFSSTAMAWYRQAPGKQRDLVAVISTVGITKYADSVKGRFTISRDNAKNTVYLQMNSLRPEDTALYYCTSDARRGWDTRYWGQGTLVTVSSGGGGSGGGSEVQLVESGGGVVQPGGSLRLSCAASGFTFRSFGMSWVRQAPGKGPEWVSSISGSGSDTLYADSVKGRFTISRDNSKNTLYLQMNSLRPEDTALYYCTIGGSLSRSSQGTLVTVSSA | 99% | 2.5 nM | 0.2 nM |  |
| A041600041 (VHH, Trivalent ISVD construct (two anti-CX3CR1 ISVDs, one anti-albumin ISVD), C-terminal alanine included in the entry; also called 54A12_SO (E1D)-9GS-66B02_SO-9GS-ALB23002-A) DVQLVESGGGSVQPGGSLRLSCAASGSIFSSTAMAWYRQAPGKQRDLVAVISTVGITKYADSVKGRFTISRDNAKNTVYLQMNSLRPEDTALYYCTSDARRGWDTRYWGQGTLVTVSSGGGGSGGGSEVQLVESGGGSVQPGGSLRLSCAASGSIFSSTAMAWYRQAPGKRRDLVAAINTVGVTKYADSVKGRFTISRDNAKNTVYLQMNSLRPEDTALYYCTSDPRRGWDTRYWGQGTLVTVSSGGGGSGGGSEVQLVESGGGVVQPGGSLRLSCAASGFTFRSFGMSWVRQAPGKGPEWVSSISGSGSDTLYADSVKGRFTISRDNSKNTLYLQMNSLRPEDTALYYCTIGGSLSRSSQGTLVTVSSA | 97% | 2.7 nM | 0.22 nM | binds |
| A041600025 (VHH, Trivalent ISVD construct (two anti-CX3CR1 ISVDs, one anti-albumin ISVD), C-terminal alanine included in the entry; also called 54A12_SO (E1D)-9GS-ALB23002-9GS-54A12_SO-A) DVQLVESGGGSVQPGGSLRLSCAASGSIFSSTAMAWYRQAPGKQRDLVAVISTVGITKYADSVKGRFTISRDNAKNTVYLQMNSLRPEDTALYYCTSDARRGWDTRYWGQGTLVTVSSGGGGSGGGSEVQLVESGGGVVQPGGSLRLSCAASGFTFRSFGMSWVRQAPGKGPEWVSSISGSGSDTLYADSVKGRFTISRDNSKNTLYLQMNSLRPEDTALYYCTIGGSLSRSSQGTLVTVSSGGGGSGGGSEVQLVESGGGSVQPGGSLRLSCAASGSIFSSTAMAWYRQAPGKQRDLVAVISTVGITKYADSVKGRFTISRDNAKNTVYLQMNSLRPEDTALYYCTSDARRGWDTRYWGQGTLVTVSSA | 98% | 3.8 nM | 0.16 nM |  |
| A041600085 (VHH, also called 307-9GS-ALB23002-9GS-307 (D1E)-A) DVQLVESGGGLVQPGGSLRLSCAASGSIFSSTAMAWYRQAPGKRRDLVAAISTVGVTKYADSVKGRFTISRDNSKNTVYLQMNSLRPEDTAVYYCTSDPRRGWDTRYWGQGTLVTVSSGGGGSGGGSEVQLVESGGGVVQPGGSLRLSCAASGFTFRSFGMSWVRQAPGKGPEWVSSISGSGSDTLYADSVKGRFTISRDNSKNTLYLQMNSLRPEDTALYYCTIGGSLSRSSQGTLVTVSSGGGGSGGGSEVQLVESGGGLVQPGGSLRLSCAASGSIFSSTAMAWYRQAPGKRRDLVAAISTVGVTKYADSVKGRFTISRDNSKNTVYLQMNSLRPEDTAVYYCTSDPRRGWDTRYWGQGTLVTVSSA | 103% | 7.7 nM | 0.17 nM | binds |
| A041600034 (VHH, Trivalent ISVD construct; also called 54A12_SO (E1D)-9GS-ALB23002-9GS-66B02_SO-A) DVQLVESGGGSVQPGGSLRLSCAASGSIFSSTAMAWYRQAPGKQRDLVAVISTVGITKYADSVKGRFTISRDNAKNTVYLQMNSLRPEDTALYYCTSDARRGWDTRYWGQGTLVTVSSGGGGSGGGSEVQLVESGGGVVQPGGSLRLSCAASGFTFRSFGMSWVRQAPGKGPEWVSSISGSGSDTLYADSVKGRFTISRDNSKNTLYLQMNSLRPEDTALYYCTIGGSLSRSSQGTLVTVSSGGGGSGGGSEVQLVESGGGSVQPGGSLRLSCAASGSIFSSTAMAWYRQAPGKRRDLVAAINTVGVTKYADSVKGRFTISRDNAKNTVYLQMNSLRPEDTALYYCTSDPRRGWDTRYWGQGTLVTVSSA | 95% | 4.5 nM | 0.074 nM |  |
